Measured values: paper PMC5505470
Read-outs that look alike come from different tables or passages of the source.

Assays:
PTBP1-RRM2 [1] = biological target: T1, PTBP1-RRM2 (UniProt P26599-1 178-317, C250S;C251S); test: NMR
PTBP1-RRM1 [2] = biological target: T2, PTBP1-RRM1 (UniProt P26599-1 41-163); test: NMR
PTBP1 full length = PTBP1 full length (UniProt P26599-1 1-531, C250S;C251S); test: UV crosslinking CLIR-MS/MS
PTBP1-RRM2 [3] = biological target: T1, PTBP1-RRM2; test: NMR solution structure model
PTBP1-RRM1 [4] = biological target: T2, PTBP1-RRM1; test: NMR; remark: listed apart in the source
PTBP1-RRM34 = PTBP1-RRM34 (UniProt P26599-1 324-531); test: NMR
PTBP1-RRM1;PTBP1-RRM34 = PTBP1-RRM1;PTBP1-RRM34 (;, UniProt P26599-1;P26599-1 41-163;324-531, |); test: NMR

B1: EMCVE (structured_RNA)
RNA: GGAGCGUUUGUCUAUAUGUUCC
PTBP1-RRM2 [1]
  binding result: binds
PTBP1-RRM1 [2]
  binding result: binds

B2: EMCVDElinkF (structured_RNA)
RNA: GGAUACUGGCCGAAGCCGCUUGGAAUAAGGCCGGUGUGCGUUUGUCUAUAUGUUAUUUUCCACCAUAUUGCCGUCUUUUGGCAAUGUG
PTBP1 full length
  binding result: binds

B3: EMCVF (structured_RNA)
RNA: GGAUAUUGCCGUCUUUUGGCAAUGUCC
PTBP1-RRM2 [3]
  binding result: binds
PTBP1-RRM1 [4]
  binding result: binds

B4: EMCVDElink (structured_RNA)
RNA: GGAUACUGGCCGAAGCCGCUUGGAAUAAGGCCGGUGUGCGUUUGUCUAUAUGUUAUUUUCCAC
PTBP1-RRM34
  binding result: binds
PTBP1-RRM1;PTBP1-RRM34
  binding result: binds
